The source of these data is patent US20250197488A1 (MABWELL SHANGHAI BIOSCIENCE, published 2025).

B4: IL-11 (Cat. 12225-HNCE, Sino Biological Inc.) (ligand, UniProt P20809 22-199, looked up)
chain: PGPPPGPPRVSPDPRAELDSTVLLTRSLLADTRQLAAQLRDKFPADGDHNLDSLPTLAMSAGALGALQLPGVLTRLRADLLSYLRHVQWLRRAGGSSLKTLEPELGTLQARLDRLLRRLQLLMSRLALPQPPPDPPAPPLAPPSSAWGGIRAAHAILGGLHLTLDWAVRGLLLLKTRL

Experiment [1] concerns the target B4. The experiment is described as follows: cell-based or functional assay.
For experiment [2], the target named is T1, human IL-11 (AAH12506.1, Pro22-Leu199) (human, UniProt P20809 22-199).
T1 construct: The range Pro22-Leu199 counts on AAH12506.1; The Octet runs say only 'human IL-11'; also called hIL-11
T1 chain: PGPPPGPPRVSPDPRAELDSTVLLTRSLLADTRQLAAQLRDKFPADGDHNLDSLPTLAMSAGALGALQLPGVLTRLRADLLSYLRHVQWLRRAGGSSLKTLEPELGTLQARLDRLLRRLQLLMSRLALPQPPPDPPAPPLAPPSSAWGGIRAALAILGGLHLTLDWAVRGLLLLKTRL
The experiment is described as follows: BLI (Octet), antibody on AHC probe, human IL-11 in solution. The protocol:
(§1) When the hybridoma cells were cultured to a certain number, culture supernatants were collected and purified using Protein G affinity chromatography to obtain murine hybridoma antibodies (Hy5C2, Hy8C8, Hy16B5, Hy18A10, Hy18H10, Hy23G6 and Hy29C11). The affinity of the murine antibodies purified from the hybridoma supernatants was determined using an Octet QKe System instrument from Fortebio Inc. with an anti-mouse IgG Fc Capture biosensor to capture the Fc fragments of the antibodies, for which an anti-IL-11 antibody named “3C6-mFc” recombinantly expressed was used at the same concentration as a positive control. Specifically, a hybridoma supernatant was diluted with HBS-EP+ buffer (GE), and was allowed to pass through the surface of AMC probes (Cat: 18-5088, PALL), and so the antibody in the hybridoma supernatant was captured on the surface of the probes; then, human IL-11 diluted in the HBS-EP+ buffer (300 nM) was used as a mobile phase to react with the antibody captured on the surface of the probes. Both the binding and the dissociating were conducted for 300 seconds. When the experiment was finished, data from which response values of blank controls had been deducted was fitted using a 1:1 Langmuir binding model by software, and then kinetic constants for antigen-antibody binding were calculated. Binding signals were detected on the Octet QKe System instrument with Hy5C2, Hy8C8, Hy16B5, Hy18A10, and Hy18H10.
(§2) The affinity of hz18A10 and hz8C8 was determined according to the method provided in Example 1 using AHC bioprobes for capturing human Fc fragment instead, with other conditions unchanged. A recombinantly expressed anti-IL-11 antibody 3C6-hFc was used at the same concentration as a positive control.
(In general: In BLI a coated tip is dipped into the sample, and binding shifts an interference pattern.)

The target in experiment [3] is B4. The experiment is described as follows: competition ELISA, IL-11/IL-11Rα/GP130 complex. Summed up: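 Plates coated overnight with IL-11Rα-His (Met1-Val363, C-terminal 6-His); antibody samples co-incubated to compete for IL-11/IL-11Rα/GP130 complex formation. Bound complex detected colorimetrically with HRP-conjugated anti-human Fc secondary antibody. Humanized and affinity-matured mutants carried human IgG1 constant regions.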
(In general: An ELISA detects its analyte on a solid surface through an enzyme-linked reagent.)

Experiment [4] deals with T1, human IL-11 (AAH12506.1, Pro22-Leu199). Kind of experiment: BLI (Octet), antibody on AHC probe, human IL-11 in solution. The protocol:
as §1, §2

The target of experiment [5] is T2, mIL11.
T2 construct: also called murine IL-11 (NP_032376.1, Pro22-Leu199)
T2 cytokine chain: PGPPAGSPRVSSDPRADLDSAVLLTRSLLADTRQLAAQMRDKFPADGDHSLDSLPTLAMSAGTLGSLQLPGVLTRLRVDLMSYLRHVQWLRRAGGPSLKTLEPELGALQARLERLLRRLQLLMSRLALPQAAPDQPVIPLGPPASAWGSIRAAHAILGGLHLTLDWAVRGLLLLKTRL
Kind of experiment: direct ELISA, hybridoma supernatant on plate-immobilised murine IL-11, OD450. From the text: Murine anti-IL-11 hybridoma monoclones 5C2, 8C8, 16B5, 18A10, 18H10, 23G6 and 29C11 were obtained by murine hybridoma technology. The binding activity of the supernatants of those clones to human IL-11 (AAH12506.1, Pro22-Leu199; SEQ ID NO.128) and murine IL-11 (NP_032376.1, Pro22-Leu199; SEQ ID NO.129) immobilized on the surface of ELISA plates was detected via direct ELISA.

Experiment [6] addresses T1, human IL-11 (AAH12506.1, Pro22-Leu199). Kind of experiment: BLI (Octet QKe), antibody on anti-mouse Fc probe, human IL-11 300 nM. Here is the method: as §1
Experiment [7] has as its target B4. Kind of experiment: competition ELISA: IL-11Rα-His coated, IL-11 + antibody + gp130-Fc. The protocol:
The activity of the recombinant murine anti-IL-11 antibodies for blocking the formation of IL-11/IL-11Rα/GP130 complex was analyzed via competition ELISA. IL-11Rα-His (NP_004503.1, Met1-Val363, C-terminus-6-His Tag) was firstly added into ELISA plates to be coated overnight. Next day, samples were prepared as follows. […] After co-incubating and washing, an HRP conjugated anti-human Fc secondary antibody was added to develop the color which was then detected.

In experiment [8] the target is T3, human IL-11Rα, full length, stably expressed on STAT3-Luc HEK293 cells (human, UniProt Q14626 23-422).
T3 sequence (looked up): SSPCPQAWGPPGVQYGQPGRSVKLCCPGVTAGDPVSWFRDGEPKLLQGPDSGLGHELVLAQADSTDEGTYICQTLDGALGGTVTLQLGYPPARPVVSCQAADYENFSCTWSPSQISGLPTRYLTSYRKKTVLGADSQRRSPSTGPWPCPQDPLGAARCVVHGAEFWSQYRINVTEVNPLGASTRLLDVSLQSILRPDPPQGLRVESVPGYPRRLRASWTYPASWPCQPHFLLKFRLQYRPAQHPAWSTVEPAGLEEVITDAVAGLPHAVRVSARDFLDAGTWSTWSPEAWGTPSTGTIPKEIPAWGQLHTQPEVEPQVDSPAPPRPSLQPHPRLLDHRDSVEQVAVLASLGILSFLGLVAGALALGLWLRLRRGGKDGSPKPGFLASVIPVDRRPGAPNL
The experiment is described as follows: cell-based or functional assay.

B1: 3C6-hFc (antibody, human IgG1, kappa)
heavy: not shown
light: DIVLTQSPASLALSPGERATLSCRASKSVSTSGYSYIHWYQQKPGQAPRLLIYLASNLDSGVPARFSGSGSGTDFTLTISSLEEEDFATYYCQHSRDLPPTFGQGTKLEIKRTVAAPSVFIFPPSDEQLKSGTASVVCLLNNFYPREAKVQWKVDNALQSGNSQESVTEQDSKDSTYSLSSTLTLSKADYEKHKVYACEVTHQGLSSPVTKSFNRGEC
notes: human IgG1 constant regions; also called positive control antibody; hz3C6
Usually Kd stands for the equilibrium constant for the complex coming apart. A lower Kd goes with higher affinity. One may read the koff as the first-order rate constant of dissociation. Read a high koff as a short-lived complex. As usually defined, the kon is the rate constant with which the complex forms. Read a high kon as fast association. As usually defined, the IC50 is the point on the concentration scale where inhibition reaches its midpoint. For B1, the “Blocking activity (IC50), STAT3-luc reporter” value in experiment [1] came out at 0.342 µg/mL. Further, in experiment [2], binding was characterised by a dissociation constant (Kd) of 712 pM, the koff stood at 0.000581 s⁻¹ and the kon worked out at 816000 M⁻¹ s⁻¹. Also, in experiment [3], the IC50 came out at 1.9 µg/mL. In experiment [4], this molecule yielded a Kd of 712 pM, a koff of 0.000581 s⁻¹ and a kon of 816000 M⁻¹ s⁻¹.

B2: Hy18A10 (antibody, V domains shown)
VH: QVQLQQPGAELVKPGASVKMSCKASGYKFITYNMDWVKQTPGQGLEWIGTIYPGNGDTSYNQKFKGKATLTADKSSSTAYMQLSSLTSEDSAVYYCARGDLYALDYWGQGTSVTVSS
VL: SIVMTQTPKFLLVSAGDRVTITCKASQSVSNDVAWYQQKPGQSPKLLIYSASNRYTGVPDRFTGSGYGTDFTFTINTVQAEDLAVYFCQHDYSSPYTFGGGTKLEIKR
notes: murine hybridoma antibody
As for B2, in experiment [5], the binding result is recorded as “binds”. Besides, in experiment [6], binding was characterised by a dissociation constant (Kd) of 1090 pM, the koff came out at 0.00187 s⁻¹ and the association rate constant (kon) was 1.71e+06 M⁻¹ s⁻¹.

B3: mu18A10 (antibody, V domains shown)
VH: QVQLQQPGAELVKPGASVKMSCKASGYKFITYNMDWVKQTPGQGLEWIGTIYPGNGDTSYNQKFKGKATLTADKSSSTAYMQLSSLTSEDSAVYYCARGDLYALDYWGQGTSVTVSS
VL: SIVMTQTPKFLLVSAGDRVTITCKASQSVSNDVAWYQQKPGQSPKLLIYSASNRYTGVPDRFTGSGYGTDFTFTINTVQAEDLAVYFCQHDYSSPYTFGGGTKLEIKR
notes: also called recombinant murine antibody 18A10
B3: the IC50 in experiment [7] was 1.4 µg/mL.
In the case of B4, the “EC50 of IL-11 in stimulating the transcriptional expression of STAT3-luc reporter gene” value in experiment [8] is 0.00011 µg/mL.

B5: Hy8C8 (antibody, V domains shown)
VH: DVQLVESGGGLVQPGGSRKLSCAASGFTFSSFGMHWVRQSPERGLEWVAYITSGSNTIYYADTVKGRFTISRDNPENTLFLQMTSLRSEDTAMYYCAREYYSYDEGFAYWGQGTLVTVSA
VL: EIVLTQSPTTMAASPGEKITITCSVSSSISSNYLHWYQQKPGFSPKLLIYRTSNLASGVPARFSGSGSGTSHSLTIDTMEAEDVATYYCQQGVDVPFTFGSGTKLEIKR
notes: murine hybridoma antibody
In the case of B5, in experiment [5], the binding result is recorded as “binds”. In experiment [6], this molecule yielded a Kd of 1300 pM, a koff of 0.00204 s⁻¹ and a kon of 1.51e+06 M⁻¹ s⁻¹.

B6: mu8C8 (antibody, V domains shown)
VH: DVQLVESGGGLVQPGGSRKLSCAASGFTFSSFGMHWVRQSPERGLEWVAYITSGSNTIYYADTVKGRFTISRDNPENTLFLQMTSLRSEDTAMYYCAREYYSYDEGFAYWGQGTLVTVSA
VL: EIVLTQSPTTMAASPGEKITITCSVSSSISSNYLHWYQQKPGFSPKLLIYRTSNLASGVPARFSGSGSGTSHSLTIDTMEAEDVATYYCQQGVDVPFTFGSGTKLEIKR
notes: also called recombinant murine antibody 8C8
Take B6: in experiment [7], the IC50 is 1.61 µg/mL.

B7: hz18A10 (antibody, human IgG1, kappa, V domains shown)
VH: EVQLVQSGAEVKKPGASVKVSCKASGYTFTTYNMDWVRQAPGQGLEWMGTIYPGNGDTSYNQKFKGRVTMTRDTSTSTVYMELSSLRSEDTAVYYCARGDLYALDYWGQGTLVTVSS
VL: DIQMTQSPSSLSASVGDRVTITCKASQSVSNDVAWYQQKPGKAPKLLIYSASNRYTGVPSRFSGSGSGTDFTFTISSLQPEDIATYYCQHDYSSPYTFGQGTKLEIKR
notes: humanized, human constant regions; also called hz18A10-VH + hz18A10-VL; parent antibody hz18A10
As to B7, the “Blocking activity (IC50), STAT3-luc reporter” value in experiment [1] came to 18.5 µg/mL. In experiment [2], this molecule registered a dissociation constant (Kd) of 3210 pM, an off-rate (koff) of 0.00249 s⁻¹ and an on-rate (kon) of 773000 M⁻¹ s⁻¹.

B8: 3C6-mFc (antibody, mouse IgG1)
heavy: EVQLVQSGAEVKKPGASVKISCKASGYTFTDYNMDWVKQAPGQRLEWIGDINPHNGGPIYNQKFTGRATLTVDKSASTAYMELSSLRSEDTAVYYCARGELGHWYFDVWGQGTTVTVSSAKTTPPSVYPLAPGSAAQTNSMVTLGCLVKGYFPEPVTVTWNSGSLSSGVHTFPAVLQSDLYTLSSSVTVPSSTWPSETVTCNVAHPASSTKVDKKIVPRDCGCKPCICTVPEVSSVFIFPPKPKDVLTITLTPKVTCVVVDISKDDPEVQFSWFVDDVEVHTAQTQPREEQFNSTFRSVSELPIMHQDWLNGKEFKCRVNSAAFPAPIEKTISKTKGRPKAPQVYTIPPPKEQMAKDKVSLTCMITDFFPEDITVEWQWNGQPAENYKNTQPIMDTDGSYFVYSKLNVQKSNWEAGNTFTCSVLHEGLHNHHTEKSLSHSPGK
light: DIVLTQSPASLALSPGERATLSCRASKSVSTSGYSYIHWYQQKPGQAPRLLIYLASNLDSGVPARFSGSGSGTDFTLTISSLEEEDFATYYCQHSRDLPPTFGQGTKLEIKRTVAAPTVSIFPPSSEQLTSGGASVVCFLNNFYPKDINVKWKIDGSERQNGVLNSWTDQDSKDSTYSMSSTLTLTKDEYERHNSYTCEATHKTSTSPIVKSFNRNEC
notes: murine IgG1 constant regions; also called positive control anti-IL-11 antibody
As for B8, the half-maximal inhibitory concentration (IC50) in experiment [7] was 2.1 µg/mL. In experiment [6], binding was characterised by a dissociation constant (Kd) of 712 pM, the koff turned out to be 0.000581 s⁻¹ and the kon is 816000 M⁻¹ s⁻¹.
